Measured values published in patent US20230203538A1.
Each block holds one substance with its values, some of them ahead of it.

Key:
[1] = molecular target: CD5 on murine T cells (mouse) (UniProt P13379); test: cell-based or functional assay
[2] = molecular target: CD5 on human ACH2 immortalized T cells (human) (UniProt P06127); test: cell-based or functional assay
UniProt P06127, sequence (P06127 25-495 limits assumed): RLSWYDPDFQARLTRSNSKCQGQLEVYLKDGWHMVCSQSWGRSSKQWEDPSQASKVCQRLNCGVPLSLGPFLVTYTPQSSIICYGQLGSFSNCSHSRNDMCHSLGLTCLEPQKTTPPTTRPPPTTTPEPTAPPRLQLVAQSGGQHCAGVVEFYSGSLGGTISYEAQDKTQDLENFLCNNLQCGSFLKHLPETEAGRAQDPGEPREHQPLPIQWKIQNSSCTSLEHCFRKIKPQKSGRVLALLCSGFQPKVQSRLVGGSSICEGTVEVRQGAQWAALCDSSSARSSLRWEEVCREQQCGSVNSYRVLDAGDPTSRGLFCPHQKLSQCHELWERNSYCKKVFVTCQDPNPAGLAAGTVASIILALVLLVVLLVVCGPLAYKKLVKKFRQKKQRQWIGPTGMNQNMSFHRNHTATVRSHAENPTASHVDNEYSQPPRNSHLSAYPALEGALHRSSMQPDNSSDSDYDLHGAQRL

UniProt P13379, sequence (P13379 24-494 limits assumed): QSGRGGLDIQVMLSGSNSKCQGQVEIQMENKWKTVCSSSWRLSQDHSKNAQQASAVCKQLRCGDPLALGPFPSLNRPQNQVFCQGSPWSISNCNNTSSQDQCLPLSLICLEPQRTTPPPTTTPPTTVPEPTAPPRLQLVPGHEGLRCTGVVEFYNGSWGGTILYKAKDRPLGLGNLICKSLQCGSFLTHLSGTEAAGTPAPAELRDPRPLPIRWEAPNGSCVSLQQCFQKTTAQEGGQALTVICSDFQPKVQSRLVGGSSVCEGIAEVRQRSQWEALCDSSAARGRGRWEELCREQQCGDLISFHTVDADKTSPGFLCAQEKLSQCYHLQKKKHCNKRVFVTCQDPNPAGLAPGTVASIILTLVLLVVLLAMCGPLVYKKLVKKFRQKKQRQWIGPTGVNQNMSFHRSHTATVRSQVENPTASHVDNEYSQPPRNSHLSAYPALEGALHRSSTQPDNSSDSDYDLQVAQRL

percent of murine T cells that received mRNA from IgG/LNP-FAPCAR (flow cytometry) [1]: 7%
Substance: control isotype matched IgG conjugated to LNP-mRNA (antibody)

Substance: mouse anti-human CD5, clone UCHT2 (BioLegend), conjugated to LNP-mRNA (antibody)
percent gene transfer (GFP) in human ACH2 T cells 24 hours after mixing with CD5/LNP-GFP [2]: 89 to 93%

percent of murine T cells expressing FAPCAR 48 hours after incubation with CD5/LNP-FAPCAR (flow cytometry) [1]: 83%
percent of murine T cells expressing GFP 48 hours after incubation with CD5/LNP-GFP (flow cytometry) [1]: 78%
Substance: purified rat anti-mouse CD5, clone 53-7.3 (BioLegend), conjugated to LNP-mRNA (antibody)
